Reference: PMC11033526 (Journal of Biochemistry, 2023)
No end group written: not given here. *: point of attachment. Biotin = O=C1N[C@H]2[C@H](CS[C@H]2CCCCC(=O)*)N1

Columns and labels:
mouse calmodulin [1] = target: T1, mouse calmodulin (mouse, UniProt P0DP26 1-149); assay: pull-down; His-tagged ySUMO-fusion protein on Ni-NTA Superflow, ySUMO portion denatured with 6 M guanidine chloride; 0.6 μM mCaM in +Ca2+ buffer (150 mM NaCl, 0.1% Tween 20, 1 mM CaCl2, pH 7.5), 4°C, 2 h; CaM detected by western blot; conditions: both partners purified
T1 construct: also called mCaM; CaM; source: E. coli BL21 (DE3) pLysS, purified (Phenyl Sepharose)

mouse calmodulin [2] = target: T1, mouse calmodulin; assay: SPR; Biacore 2000; biotinylated T1r peptides on a CAP chip (Biotin CAPture Kit); mCaM injected, 2-fold dilutions from 50 μM, +Ca2+ (1 mM CaCl2), 25°C, 30 μl/min; KD from equilibrium responses, 1:1 model; conditions: both partners purified

B1: FLAG-ySUMO-mT1r2 CT (domain or fragment)
chain: PKCYMILFYPERNTSAYFNSMIQGYTMRKS
notes: mouse T1r2, cytosolic C-terminal region (CT), residues 814-843; On the Ni-NTA beads the ySUMO portion was denatured with 6 M guanidine chloride before mCaM was added; also called ySUMO-fusion protein of the mT1r2 C-terminal region; source: E. coli BL21 (DE3), purified (Ni-NTA); not shown: FLAG, N-terminal, kept; ySUMO, N-terminal, kept; His8, C-terminal, kept
Mouse calmodulin [1]
  binding result: binds

B2: biotin-mT1r2 CT peptide (cytosolic C-terminal region of mouse taste receptor type 1 subunit 2) (peptide)
peptide: Biotin-GGSGGSPKCYMILFYPERNTSAYFNSMIQGYTMRKS
notes: N-terminal linker segment; mouse T1r2, cytosolic C-terminal region as defined by TMHMM, residues 814-843; source: synthetic peptide (Hokkaido System Science, ~90% purity)
Mouse calmodulin [2]
  Kd: 27 µM

B3: FLAG-ySUMO-mT1r1 CT (domain or fragment)
chain: PKCYVILCRPELNNTEHFQASIQDYTRRCGTT
notes: mouse T1r1, cytosolic C-terminal region (CT), residues 811-842; On the Ni-NTA beads the ySUMO portion was denatured with 6 M guanidine chloride before mCaM was added; also called ySUMO-fusion protein of the mT1r1 C-terminal region; source: E. coli BL21 (DE3), purified (Ni-NTA); not shown: FLAG, N-terminal, kept; ySUMO, N-terminal, kept; His8, C-terminal, kept
Mouse calmodulin [1]
  binding result: binds
